Measurements taken from patent publication US20050100919, “Nucleic acid-based detection” (Brandeis University, a Massachusetts corporation, published 2005).

What was measured:
thrombin [1] = molecular target: T1, thrombin (UniProt P00734;P00734 P00734:328-363,P00734:364-622); test: fluorescence ratio at 100 nM thrombin in TBB; 0.7 in TE
thrombin [2] = molecular target: T1, thrombin; test: half-maximum effect, fluorescence decrease, TBB (20 mM Tris-HCl, 140 mM NaCl, 5 mM KCl, 1 mM MgCl2, 1 mM CaCl2, pH 7.5)
thrombin [3] = molecular target: T1, thrombin; test: fluorescence change at 100 nM thrombin in TE
thrombin [4] = molecular target: T1, thrombin; test: fluorescence beacon titration, TE buffer, 24 C; estimated
thrombin [5] = molecular target: T1, thrombin; test: competition; filter binding competition against radiolabeled G15D5d, TBB; displacement curve only in figure
factor IX = factor IX (UniProt P00740 P00740:47-461); test: specificity control; no effect on beacon fluorescence in TE; conditions: tags: purchased from Enzyme Research Lab; label: 5'-fluorescein, 3'-DABCYL; alternate 5-bp stem-loop / G4
Procedure: Thrombin binding assay using a fluorescence spectrometer: The aptamers were diluted to a concentration of 10 uM in TBB or TE (20 mM Tris-HCl, 1 mM EDTA, pH7.5) and heated at 99° for three min and cooled down to room temperature prior to the experiment. The experiment was performed using 5-40 nM of aptamer in 2 ml. All of the fluorescence intensity measurements were performed at 24° C. The excitation wavelength was 495 nm and the emission was monitored at its peak, 516 nm (in TE) or 518 nm (in TBB). A small volume (0.5-3 μl) of thrombin (final concentration of 0-250 nM) was added and the change of emission was monitored.
To confirm the binding specificity of G15D5dMB, we used factor IX, which is a plasma serine protease, as is thrombin, and shares a sequence identity of 37% in the catalytic domain with thrombin.

thrombin [6] = molecular target: T1, thrombin; test: competition; affinity increase relative to G15D5d, filter binding competition in TE
thrombin [7] = molecular target: T1, thrombin; test: fluorescence beacon titration, TE buffer (20 mM Tris-HCl, 1 mM EDTA, pH 7.5), 24 C; estimated
thrombin [8] = molecular target: T1, thrombin; test: fluorescence change at 100 nM thrombin in TBB; not saturated at 250 nM

factor IX, sequence (P00740 47-461, one chain of several): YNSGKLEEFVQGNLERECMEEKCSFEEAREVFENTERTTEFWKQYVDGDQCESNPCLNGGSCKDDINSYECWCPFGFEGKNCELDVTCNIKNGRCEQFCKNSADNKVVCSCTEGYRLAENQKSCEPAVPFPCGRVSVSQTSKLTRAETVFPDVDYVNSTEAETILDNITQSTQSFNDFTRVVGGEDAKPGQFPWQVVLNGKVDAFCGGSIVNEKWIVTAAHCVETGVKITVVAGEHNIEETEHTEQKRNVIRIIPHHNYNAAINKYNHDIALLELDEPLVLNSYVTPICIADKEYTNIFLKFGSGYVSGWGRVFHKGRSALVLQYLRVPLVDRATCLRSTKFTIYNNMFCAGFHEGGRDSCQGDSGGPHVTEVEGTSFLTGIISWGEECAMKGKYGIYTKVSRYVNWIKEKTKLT

Binder: TTTTTGGTTGGTGTGGTTGG (ssDNA) [G15D5ndMB]
- activity (thrombin [1]): 0.5 fold
- EC50 (thrombin [2]): ~0.08 µM

Binder: CCAACCGGTTGGTGTGGTTGG (ssDNA) [G15D6dMB]
- activity (thrombin [3]): 1.7 fold
- Kd (thrombin [4]): 0.012 µM

Binder: GGTTGGTGTGGTTGG (ssDNA) [G15D]
- binding result (thrombin [5]): binds

Binder: CCAACGGTTGGTGTGGTTGG (ssDNA) [G15D5dMB]
- binding result (factor IX): no binding
- activity (thrombin [3]): 2.3 fold
- binding signal (thrombin [6]): ~6 fold
- Kd (thrombin [7]): 0.003 µM

Binder: CCAAGGTTGGTGTGGTTGG (ssDNA) [G15D4dMB]
- activity (thrombin [8]): 1.5 fold
